Laboratory results from paper PMC7617965, “Interaction with AK2A links AIFM1 to cellular energy metabolism” (Molecular cell, 2025).
Blank lines part the entries; values can stand above or below the molecule they belong to. No end group written: not given here.

Columns and labels:
MIA40 (Homo sapiens) = MIA40 (Homo sapiens) (UniProt Q8N4Q1); conditions: cited from earlier work
[1] = target: endogenous AIFM1 (human (endogenous in HEK293)) (UniProt O95831); test: SEC; native lysates of HEK293 cells (WT, AIFM1 KO, AIFM1 KO with AIFM1-HA, AK2 KO with AK2A or AK2B; cycloheximide 4 h in one panel) on HiLoad 16/600 Superdex 200; fractions analysed by immunoblot, in part after a thiol shift with mmPEG24
AIFM1(103-613) [2] = target: T1, AIFM1(103-613) (human, UniProt O95831 103-613); test: SEC; AIFM1 incubated with AK2A, MIA40 or the interaction site peptides with NADH; unbound NADH removed by gel filtration; samples at 0 and 7 h analysed by gel filtration, absorbance at 280 nm; conditions: both partners purified
T1 construct: Flavoprotein with FAD; forms a dimer in the presence of NADH, which was added in most assays; also called soluble AIFM1 lacking the transmembrane domain; source: E. coli Rosetta2 (DE3), purified (Ni Sepharose)

AIFM1(103-613) [3] = target: T1, AIFM1(103-613); test: cell-based or functional assay
AIFM1(103-613) [4] = target: T1, AIFM1(103-613); test: SEC; purified proteins, AIFM1 to AK2 or MIA40 1:2 to 1:4, 100 mM NaCl, 20 mM Tris/Cl pH 7.4, with 0.1 mM NADH, 20 min, 4°C, Superdex 200; conditions: both partners purified

Molecule: AIFM1 (from UniProt O95831)
Kd (MIA40 (Homo sapiens)): 0.18 µM

percent of AK2 in the fractions of the complex [1]: 5%
Molecule: adenylate kinase 2 (AK2), endogenous (from UniProt P54819 1-239) (enzyme)

half-life (t1/2) of the complex after removal of excess NADH (AIFM1(103-613) [2]): > 7 h | apparent kcat of the NADH:DCIP oxidoreductase activity of AIFM1 with the peptide (3.3 μM); AIFM1 alone 0.50 s^−1 (H2O) (AIFM1(103-613) [3]): 0.89 s⁻¹
B1: MIA40 WT peptide (peptide)
peptide: SYSRQEGKDRIIFVTKEDHETPSSAELVA-NH2
notes: N-terminal region of MIA40 (CHCHD4); serine stands at position 4 where MIA40 has C4; also called MIA40 peptide; source: synthetic peptide

half-life (t1/2) of the complex after removal of excess NADH (AIFM1(103-613) [2]): > 7 h | stoichiometry N (AIFM1(103-613) [4]): 2 per AIFM1 dimer
B2: MIA40 C4S,C53S,C55S (natural protein, UniProt Q8N4Q1 1-142, looked up)
chain: MSYSRQEGKDRIIFVTKEDHETPSSAELVADDPNDPYEEHGLILPNGNINWNSPSLGGMASGPCGEQFKSAFSCFHYSTEEIKGSDCVDQFRAMQECMQKYPDLYPQEDEDEEEEREKKPAEQAEETAPIEATATKEEEGSS
notes: MIA40 (CHCHD4) with C4S, C53S and C55S; Only aa 2-20 are seen in the cryo-EM map; also called MIA40 SPS; purified MIA40; source: E. coli Rosetta2 (DE3), purified (Ni Sepharose)

half-life (t1/2) of the complex after removal of excess NADH (AIFM1(103-613) [2]): > 7 h | apparent kcat of the NADH:DCIP oxidoreductase activity of AIFM1 with the peptide (3.3 μM); AIFM1 alone 0.37 s^−1 (DMSO) (AIFM1(103-613) [3]): 0.71 s⁻¹
B3: AK2A WT peptide (peptide)
peptide: ATSKDLVMFI-NH2
notes: C-terminus of AK2 isoform A; serine stands where AK2A bears C232; also called AK2A peptide; source: synthetic peptide
